The nanobody polyreactivity screen of Harvey et al. (2022)

Test: yeast display, Sf9 membrane polyspecificity reagent, FACS + sequencing; frameworks hold sequencing errors
Outline: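 Polyreactivity labels are assigned by the sorting gate from which each nanobody was recovered. The gates were low and high (top ~1%), set on anti-HA fluorescence for expression and streptavidin fluorescence for reagent binding. Before sorting, galactose-induced (36–48 hours) yeast display cells were stained for 1 hour at 4 °C with 10% biotinylated, detergent-solubilized Sf9 membrane reagent.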

QVQLVESGGGLVQAGGSLRLSCAASGSTFVSYAMGWYRQAPGKEREFVAAITWSGGSTYYADSVKGRFTISRDNAKNTVYLQMNRLKPEDTAVYYFARPYRGSPRYYYWGQGTQVTVSS
polyreactivity (PSR sort gate): high polyreactivity

QVQLVESGGGLVQAGGSLRLSCAASGSTFGSYAMVWYRQAPGKERELVADISSRGASTYYADSVKGRFTISRDNAKNTVYLQMNRLKPEDTAVYYCARDVYIWYGYGYFPEYEYWGQGTQVTVSS
polyreactivity (PSR sort gate): low polyreactivity

QVQLVESGGGLVQAGGSLRLSCAASGRIFTYNAMGWYRQAPGKERELVATITWRGGGTYYADSVKGRFTISRDNAKNTVYLQMNSLKPEDTAVYYCNRRLPGDGQYGYRRYDYWGQGTQVTVSS
polyreactivity (PSR sort gate): low polyreactivity

QVQLVESGGGLVQAGGSLRLSCAASGSIFGRYGAMGWYRQAPGKERELVAAIRTSGVSTYYADSVKGRFTISRDNAKKNVYLQMNSLKPEDTAVYYCAKGYTSYNLGKYGYWGQGTQVTVSS
polyreactivity (PSR sort gate): high polyreactivity

QVQHVESGGGLVQAGGSLRLSCAASGSIIVRYAMGWYRQAPGKERELVASISKRGGSTYYADSVKGRFTISRDNAKNTVYLQMKSLKPDDTAVYYCAAVGYYLVKFDYWGQGTQVTVSS
polyreactivity (PSR sort gate): high polyreactivity

QVQLVESGGGLVQAGGSLRLSCAASGSILGTYAMGWYRQAPGKERELVAAITLSTDGTYYADSVKGRFTISRDNAKNTVYLQMNSLKPEDTAVDYCAAPWNWRWVTQWGYYVRADYFWGQGTQVTVSS
polyreactivity (PSR sort gate): low polyreactivity

QVQLVESGGGLVQAGGSLRLSCAASGRIFYYYAMGWYRQAPGKERELVATITTTGNTYYADSVKGRFTISRDNAKNTVYLQMNSLKPEDTAVYYCNAGWDLVYGYYPRRKNFDYWGQRTQVTVSS
polyreactivity (PSR sort gate): high polyreactivity

QVQLVESGGGLVQAGGSLRLSCAASGSIFISYNMGWYGQAPGKERELVAANNYNGGRTNYADSVKGRFTISRDKAKNTVYLQINSLKPEDTAVYYCNAAYSYSIYDYWGQGTQVTVSS
polyreactivity (PSR sort gate): low polyreactivity

QVQLVESGGGLVQAGGSLRLSCAASGFIFLYNAMGWYRQAPGKERELVAAITSSGGTTYYADSVKGRFTISRDNAKNTVYLQMNSLKPEDTAVYYCAARYTGRNGGSTTPEYDYWGQGTQVTVSS
polyreactivity (PSR sort gate): low polyreactivity

QVQLVESGGRLVQAGGTLRLSCAASGRIFGYNAMGWYRQAPGKERHLVAVITSGGSKNYADSVKGRFTISRDNAKHTVYLQMNSVKPEDTAVYYCPRRIWDRWSYPVRVRYYYWGQGTQVTGSS
polyreactivity (PSR sort gate): high polyreactivity

QVQHVESGGGLVQAGGSLRLSCAASGSTFQYPYTMGWYRQAPRKARELVAVISRTGGSTFYADSVKGRFTISRDNAKNTVYLQMNSLKPEDTAVYYCNARPRYKYPSYDYWGQGTQLTVSS
polyreactivity (PSR sort gate): high polyreactivity

QVQLVESAGGLVQAGGSLSLSCAASGGTFSTNAMGWYRQAPGQERELVAAISLSGGRTYADSVKGRFTISLDNAKNTVYLQMNSLKPEDTAVYYCNADSAGITRARSELDYWGQGTQVTVSS
polyreactivity (PSR sort gate): low polyreactivity

QVHLVESGGGLVQAGGSLRLSCAPSGRTFFINAMGWYRQAPGKERELVAAIRVGAGSTYYADSVKGRFTISRDNAKNTVYLQMNSLKPEDTAVYYCAAKRVGSREYYWGQGTQVTVSS
polyreactivity (PSR sort gate): high polyreactivity

QDQRVESGGGLDQAGGSLRLSCAASGSIFLVYAMGWYRQAPGKEMEFVAAITWSGGSTYYADSVKGRFTISRDIAKNTVYLQMNSLKPEDTAVYYCAVEIWIPTWYGLSGEYDYWGHGTQVTVSS
polyreactivity (PSR sort gate): low polyreactivity

QVQLVESGGGLVQAGGSLRLSCAASGGIFWYYTMGWYRQAPGKERELVATISSGGRTYYADSVKGRFTISRDNAKNTVYLQMNSLKPEDTAVYYCAAVGWYNDYYWGQGTQVTVSS
polyreactivity (PSR sort gate): high polyreactivity

HGQLVESGGGLVQAGGSLRLSCAASGRTFRYYAMGWYREAPGKERELVAAITGSGGSTYYADSVKGRFTISRDNAQNTVYLQMNSLKPEDTAVYYCATRWALRWRGGYWGQGTQVTVSS
polyreactivity (PSR sort gate): high polyreactivity

QVQLVESGGGLVQAGGSLRLSCAASGRIFKWYAMGWYRQAPGKERELVAVITVSGGSTTYADSVKGRFTISLDNAKNTVYLQMNSLKQEDTAVYYCNAVYYRSRFGTSIRYDYWGQGTQVTVSS
polyreactivity (PSR sort gate): high polyreactivity

QVQLVESGGGLVQAGGSLRLSCAASGFILKPNAMGWYRQAPGKERELVAAISWSSGSTYYADSVKGRFTISRDNAKNTVYLQMNSLKPEDTAVYYCAKDLTQIYYGDDYWGQGTQVTVSS
polyreactivity (PSR sort gate): low polyreactivity

QVQLVESGGGLVQAGGSLRISCAASGITFYGYDMGWYRQAPGKERELVAAISKSGGSTHYADSVKGRFTISRDNAKNTVYLQMNSLKPEDTAVYYCAAAYWTRLRRMDYWGQGTQVTVSS
polyreactivity (PSR sort gate): high polyreactivity

QVQLVESGGGLVQAGGSLRLSCAASGFTFYPYTMGWYRQAPGKERELVAAISSSGGSTYYADSVKGRFTISRDNAKNTVYLQMNSLKPEDTAVYYCNKYQRNWFSRAPMDYWGQGTQVTVSS
polyreactivity (PSR sort gate): high polyreactivity

QVQLVESGGGLVQAGGSLRLICAASGGIIYWNAMGWYRQAPGKERELVATITRSGGSTYYADSVKGRFTISRDNAKNTVYLQMNSLKPEDTAVYYCAARSYYRFDYWGQGTQVTVSS
polyreactivity (PSR sort gate): high polyreactivity

QVQLVESGGGLVQAGGSLRLSCAASGNIFSYNAMGWYRQAPGKERELVAGISTAGTTSYADSVKGRFTISRDNAKNTVYLQLNSLKPEDTAVYYCAKRRYYWTNLHYFLGYDYWGQGTQVTVSS
polyreactivity (PSR sort gate): low polyreactivity

QVQLQESGGGLVQAGASLRLSCAASSNNSTLDVMGWYRQAPGKEREFVASIGSGGITNYADSVKGRFTISRDNAKNTVYLQMNSLKPEDTAVYYCAVLIQAYTDLIYWGQGTQVTLSS
polyreactivity (PSR sort gate): high polyreactivity

QVQLVESRGGLVQAGGSLRLSCAASGSTILQYAMGWYRQAPGNERELVAAIRFSTGTTYYADSVKGRFTISRDTANNTVYLQMNSLKPEDTAVYYCAALARTRGRKYGYWGHGTQVTVSS
polyreactivity (PSR sort gate): high polyreactivity

QVQLVESGGGLVQAGGSLRLICAASGFTFFSYTMGWYRQAPGKERELVAAISKRGSRTYYADSVKGRFTISRDNAKNTVYLQMNSLKQEDTAVYYCAADSGPEVVHRREDYWGQGTQVTLSS
polyreactivity (PSR sort gate): high polyreactivity

QVQLVESGGGLDQAGGSLRLSCAASGLIFRRYAMGWYRQAPGKEREFVAAIRWNGGTTYYADSVKGRFTISRDNAKYTVYLQMNSLKPEDTAVYYCAARVYPAYPRGYDYWGQGTQVTVSS
polyreactivity (PSR sort gate): high polyreactivity

QVQLVESGGGLVQAGGSLRLSCAASGSTFSLYAMGWYRQAPGKERELVAAINSGTSTYYADSVKGRFTISRDNAKNTVYLQMNSLKPEDTAVYYCAADGYPLQLYNYWGQGTQVTVSS
polyreactivity (PSR sort gate): low polyreactivity

QVQLVESGGGLVQAGGSLRLSCAASGRTFTYYTMGWYRQAPGKERELVAAITWSGGRTYYADSVKGRFTISRDNAKNTVYLQMNSLKPEDTAVYYCAKPPQGTYDYWGQGTQVTVSS
polyreactivity (PSR sort gate): low polyreactivity

QVQLVESGGGLVQAGGSLRLSCAASGRTFLRYAMGWYRQAPGKERELVAAITYGGRTNYADSVKGRFTISRDNAKNTVYLQMNSLKPEDTAVYYCAADRTYYYGMRVDYWGQGTQVTVSS
polyreactivity (PSR sort gate): high polyreactivity

QVQLVESGGGLVQAGGSLRLSCAASGSIFAVNAMGLYRQAPGKERELVATITGRDGSTYYADSVKGRFTISRDNAKNTVYLQMNRLKPEDTAVYYCTARRKRTYDYWGQGTQVTVSS
polyreactivity (PSR sort gate): high polyreactivity

QVQLVESGGGLVQAGGSLRLSCAASGRTFYSYAMGWYRQAPGKERELVAAISKRGTSTYYADSVKGRFTISRDNAKNTVYLQMNSLKPEDTAVYYCAAAYRGREVEYNSWGQGTQVTVSS
polyreactivity (PSR sort gate): high polyreactivity

QVQLVESGGGLVQAGGSLRLSCAASGNTFWSYAMGWYRQAPGKERELVAAISFSGGSTNYADSVKGRFTISRDNAKNTVYLQMNSLKPEDTAVYYCAAYFYAPLTYYSWYDYWGQGTQVTVSS
polyreactivity (PSR sort gate): high polyreactivity

QVQLVESGGGLVQAGGSLRLSCAASGFTLYGYAMGWYRQAPGKERELVAGIRYSGGRTYYADSVKGRFTISRDNAKNTVYLEMNSLKPEDTAVYYCAAVFKLSSSFYYWGQGTQVTVSS
polyreactivity (PSR sort gate): high polyreactivity

QVQLVESGGGLVQAGGSLRLSCAASGRTFSSYAMGGYRKAPGKERELVAAISKRGVRTSYADSVKGRFTISRDNAKNTVYLQMNRLKPEDTAVYYCNATLGRTTAVFKYYWGQGTQVTVSS
polyreactivity (PSR sort gate): high polyreactivity

QVQLVESGGGLVQAGGSLRLSCAASGSTFSIYAMGWYRQAPGKERELVAAISFSDASTYYADSVKGRFTISRDNAKNTVYLQMNSLKPEDTAVYYCAAVVGAFKRRFYYWGQGTQVTVSS
polyreactivity (PSR sort gate): high polyreactivity

QVQLVDSGGGLVQAGGSLRLSCADSGSIFGVYAMGWYRQATGKESELVAAISISDGITYYADSVKGRFTISRDNAKNNVYLQMNSLKPEDTAVYYCAAELSPYYYGESYDYWGQGTQVTVSS
polyreactivity (PSR sort gate): high polyreactivity

QVQLVESGGGLVQAGGSLRLSCAASARIQDKYARGWYRQAPGKERELVARIRFSGGDTYADSVKGRFTISRDNAKNTVYLQMNSLKPEDTAVYYCNKDRRNRWYAFDYWGQGTQVTVSS
polyreactivity (PSR sort gate): low polyreactivity

QVQLVESGVGLVQAGGSLRLSSAASGIIFVSNAMRWYRQAPGKERELVATINWSDDSTYYADSVKGRFTISRDNAKKTVSLQMNSLKADYTAVYYCYCGQGTQVTVSS
polyreactivity (PSR sort gate): low polyreactivity

QVKLQESGGGLVQAGGSLRLSCAASGYISHADEMGWYRQAPGKEHELVASISNGGSTNYADSVKGRFTISRDNAKNTVYLQMNSLKWEDTAVYYWAAWTGQVDIHYYWGQGTQVTVSS
polyreactivity (PSR sort gate): low polyreactivity

QVQLVESGGGLVQAGGSLRLSCDASGRTYTGYAIGWYRQAPGKERELVAAISKSGGRTYYADSVKGRFTISRDYAKNTVYLQMNSLKPEDTAVYYCAKVETFLQIAYRRGYDSWGQGTQVTVSS
polyreactivity (PSR sort gate): low polyreactivity

QVQLVESGGVLVQAGGSLRLICAASVFTFYSYAIGWYRQATGTERELVAGISRSGGSTYYADSVKGRFTISRDNAKNTVYLHMNRLKPEDTAVYYCNVRLRKKIQNSKYDYWGQGTQVSVSS
polyreactivity (PSR sort gate): high polyreactivity

QVQLVESGGGLVQAGGSLRLSCAASGLIFLGNAMGWYRQAPGKERELVAAISRSGGTTYYADSVKGRFTISRDNEKNTVYLQMNSLKPEDTAVYYCNAYNPYYRATVSSRGYGYWGQGTQVTVSS
polyreactivity (PSR sort gate): high polyreactivity

QVQLVESGGGLVQAGGSLRLSCAASGSTFSDYAMGWYRPEPGKERELDATITSTGDTNYADSVKGRFTMSRDNAKTTVYLQMNSLKPEDTAVYYCAAQHKKYGKRGRWNNFGYWGQGTQVTVSS
polyreactivity (PSR sort gate): low polyreactivity
